One assay concerns the target Pol I (Bacillus subtilis, UniProt O34996). Conditions: 0.15 M KCl; cited from earlier work.
The test system of the next assay is Pol II. To be noted: 0.15 M KCl; cited from earlier work.
Another assay addresses Pol III-L (Bacillus subtilis, UniProt P13267). Conditions: Pol III-L, 0.15 M KCl; cited from earlier work.
Assay [1] addresses Escherichia coli DNA polymerase III core (Escherichia coli) (UniProt P10443). Put plainly: cell-based or functional assay.
The target of assay [2] is Staphylococcus aureus Pol III-L (α-large, polC gene product) (Staphylococcus aureus) (UniProt P0C1P9). The assay can be described thus: cell-based or functional assay.
Chain of Staphylococcus aureus Pol III-L (α-large, polC gene product) (Staphylococcus aureus) (P0C1P9 whole entry): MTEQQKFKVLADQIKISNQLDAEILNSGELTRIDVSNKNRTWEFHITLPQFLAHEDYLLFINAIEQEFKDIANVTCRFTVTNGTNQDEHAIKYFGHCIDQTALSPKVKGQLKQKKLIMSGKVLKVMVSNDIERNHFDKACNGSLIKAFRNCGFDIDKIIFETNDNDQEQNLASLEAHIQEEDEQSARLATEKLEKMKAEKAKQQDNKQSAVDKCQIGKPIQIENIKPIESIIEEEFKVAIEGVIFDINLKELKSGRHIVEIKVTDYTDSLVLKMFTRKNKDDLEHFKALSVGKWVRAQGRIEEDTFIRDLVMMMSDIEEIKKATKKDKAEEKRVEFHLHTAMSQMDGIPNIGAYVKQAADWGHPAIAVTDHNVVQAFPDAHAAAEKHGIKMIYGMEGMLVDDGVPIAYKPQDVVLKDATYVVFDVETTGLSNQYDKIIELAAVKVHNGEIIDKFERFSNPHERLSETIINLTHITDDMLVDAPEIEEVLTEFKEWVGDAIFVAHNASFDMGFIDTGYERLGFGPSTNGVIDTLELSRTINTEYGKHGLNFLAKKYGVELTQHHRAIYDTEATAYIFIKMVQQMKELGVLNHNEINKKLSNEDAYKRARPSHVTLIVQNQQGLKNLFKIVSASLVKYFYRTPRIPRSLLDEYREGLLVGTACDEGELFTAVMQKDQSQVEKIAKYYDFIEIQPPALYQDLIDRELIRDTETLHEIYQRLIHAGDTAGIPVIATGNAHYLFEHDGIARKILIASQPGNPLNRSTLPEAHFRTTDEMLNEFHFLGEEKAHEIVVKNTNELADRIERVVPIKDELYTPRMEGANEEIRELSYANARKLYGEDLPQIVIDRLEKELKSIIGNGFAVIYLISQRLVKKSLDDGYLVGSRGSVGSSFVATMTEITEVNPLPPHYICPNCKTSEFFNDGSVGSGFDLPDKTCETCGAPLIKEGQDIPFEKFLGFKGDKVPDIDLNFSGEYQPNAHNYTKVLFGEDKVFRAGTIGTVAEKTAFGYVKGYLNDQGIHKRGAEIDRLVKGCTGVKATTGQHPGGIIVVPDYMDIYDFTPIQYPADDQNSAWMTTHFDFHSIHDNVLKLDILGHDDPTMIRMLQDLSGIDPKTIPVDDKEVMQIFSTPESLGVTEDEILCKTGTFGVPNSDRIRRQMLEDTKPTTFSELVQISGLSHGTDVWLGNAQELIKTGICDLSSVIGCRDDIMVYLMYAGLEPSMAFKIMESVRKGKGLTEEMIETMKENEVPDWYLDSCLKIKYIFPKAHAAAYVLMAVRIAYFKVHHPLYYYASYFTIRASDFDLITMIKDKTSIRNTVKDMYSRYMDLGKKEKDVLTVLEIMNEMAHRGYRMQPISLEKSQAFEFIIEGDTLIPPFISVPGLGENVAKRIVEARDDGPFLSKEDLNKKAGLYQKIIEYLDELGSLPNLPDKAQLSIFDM
In assay [3] the test system is singly primed M13mp18 ssDNA. Put plainly: Time course of primer extension on singly primed M13mp18 ssDNA, DnaE polymerase. To be noted: saturating concentration of DnaE. It is filed as biochemical. On the procedure:
The S. pyogenes DnaE (α-small) polymerase is more homologous to E. coli a than S. pyogenes PolC. Thus, it seems reasonable to expect that the DnaE polymerase may also function with the β clamp (FIGS. 21A-B). To test DnaE for function with τδδ′ and β, replication reactions contained 70 ng (25 fmol) of 30-mer singly primed M13 mp18 ssDNA, 0.82 μg of S. pyogenes SSB, and 3.3 ng-300 ng of DnaE (25 fmol −2.3 pmol) in 23.5 μl of 20 mM Tris-HCl (pH 7.5), 4% glycerol, 0.1 mM EDTA, 5 mM dithiothreitol (DTT), 40 μg/ml BSA, 2 mM ATP, 8 mM MgCl2, and 60 μM each of dGTP and dCTP. When present, reactions included 43.3 ng of β and 10 ng of τδδ′. Reactions were preincubated for 3 min at 37° C., and then NaCl was added to 40 mM followed by another 2 min at 37° C. DNA synthesis was initiated upon addition of 1.5 μl of 1.5 mM dATP, 0.5 mM [α^32P]-dTTP (specific activity 2,000-4,000 cpm/pmol). Aliquots of 25 μl were removed at the indicated times and quenched with an equal volume (25 μl) of 1% SDS, 40 mM EDTA. One-half of the quenched reaction was analyzed for total deoxynucleotide incorporation using DE81 filter paper and the other half was analyzed on a 0.8% neutral agarose gel. The effect of TMAU was also examined, in which 100 μM TMAU in DMSO (2% DMSO final concentration) was present. In this case, replication was allowed to proceed for 1 min before being quenched with […] of 1% SDS, 40 mM EDTA. […]

Where “and” joins values, the source holds several entries; their conditions need not be identical. Equal values may be shown once.

Chain of Escherichia coli DNA polymerase III core (Escherichia coli) (P10443 whole entry, chain 1 of 3): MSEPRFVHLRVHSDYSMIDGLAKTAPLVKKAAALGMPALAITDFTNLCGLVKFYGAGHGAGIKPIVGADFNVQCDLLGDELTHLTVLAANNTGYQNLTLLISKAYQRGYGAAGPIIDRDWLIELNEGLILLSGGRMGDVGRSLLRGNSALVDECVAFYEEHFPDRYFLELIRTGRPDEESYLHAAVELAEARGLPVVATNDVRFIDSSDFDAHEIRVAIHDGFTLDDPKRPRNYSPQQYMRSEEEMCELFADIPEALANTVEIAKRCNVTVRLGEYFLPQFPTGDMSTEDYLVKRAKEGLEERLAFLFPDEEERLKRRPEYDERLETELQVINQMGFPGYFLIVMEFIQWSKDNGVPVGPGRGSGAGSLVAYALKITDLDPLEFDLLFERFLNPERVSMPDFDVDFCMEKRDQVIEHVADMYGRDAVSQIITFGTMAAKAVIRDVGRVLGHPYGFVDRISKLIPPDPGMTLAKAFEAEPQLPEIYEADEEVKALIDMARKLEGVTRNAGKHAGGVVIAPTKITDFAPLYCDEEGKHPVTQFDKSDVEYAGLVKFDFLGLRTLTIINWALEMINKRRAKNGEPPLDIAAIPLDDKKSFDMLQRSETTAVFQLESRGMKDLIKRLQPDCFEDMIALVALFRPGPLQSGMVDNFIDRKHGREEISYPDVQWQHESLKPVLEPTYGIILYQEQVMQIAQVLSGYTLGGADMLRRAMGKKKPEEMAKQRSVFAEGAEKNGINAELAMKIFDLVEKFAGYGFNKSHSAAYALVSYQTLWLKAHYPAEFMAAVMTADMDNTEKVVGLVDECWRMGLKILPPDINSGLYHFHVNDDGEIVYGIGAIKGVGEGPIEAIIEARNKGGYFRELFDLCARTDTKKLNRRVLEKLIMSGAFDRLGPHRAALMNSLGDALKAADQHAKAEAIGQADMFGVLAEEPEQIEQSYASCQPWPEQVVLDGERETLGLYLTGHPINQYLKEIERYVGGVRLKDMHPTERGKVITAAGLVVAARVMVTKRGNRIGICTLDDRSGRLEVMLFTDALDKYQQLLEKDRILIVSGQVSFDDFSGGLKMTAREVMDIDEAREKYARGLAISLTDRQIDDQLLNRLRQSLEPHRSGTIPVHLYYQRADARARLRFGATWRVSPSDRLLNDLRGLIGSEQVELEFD
Chain of Escherichia coli DNA polymerase III core (Escherichia coli) (P03007 whole entry, chain 2 of 3, further chain): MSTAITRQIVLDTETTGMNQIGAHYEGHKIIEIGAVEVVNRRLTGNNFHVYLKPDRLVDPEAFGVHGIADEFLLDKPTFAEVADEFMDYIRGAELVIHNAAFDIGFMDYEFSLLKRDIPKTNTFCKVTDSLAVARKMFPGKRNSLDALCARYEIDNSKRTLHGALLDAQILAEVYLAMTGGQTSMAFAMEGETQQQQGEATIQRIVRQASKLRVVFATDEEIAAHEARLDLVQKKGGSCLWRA
Chain of Escherichia coli DNA polymerase III core (Escherichia coli) (P0ABS8 whole entry, chain 3 of 3, further chain): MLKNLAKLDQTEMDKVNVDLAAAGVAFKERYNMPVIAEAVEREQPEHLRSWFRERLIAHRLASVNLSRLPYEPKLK
Chain of Pol III-L (P13267 whole entry): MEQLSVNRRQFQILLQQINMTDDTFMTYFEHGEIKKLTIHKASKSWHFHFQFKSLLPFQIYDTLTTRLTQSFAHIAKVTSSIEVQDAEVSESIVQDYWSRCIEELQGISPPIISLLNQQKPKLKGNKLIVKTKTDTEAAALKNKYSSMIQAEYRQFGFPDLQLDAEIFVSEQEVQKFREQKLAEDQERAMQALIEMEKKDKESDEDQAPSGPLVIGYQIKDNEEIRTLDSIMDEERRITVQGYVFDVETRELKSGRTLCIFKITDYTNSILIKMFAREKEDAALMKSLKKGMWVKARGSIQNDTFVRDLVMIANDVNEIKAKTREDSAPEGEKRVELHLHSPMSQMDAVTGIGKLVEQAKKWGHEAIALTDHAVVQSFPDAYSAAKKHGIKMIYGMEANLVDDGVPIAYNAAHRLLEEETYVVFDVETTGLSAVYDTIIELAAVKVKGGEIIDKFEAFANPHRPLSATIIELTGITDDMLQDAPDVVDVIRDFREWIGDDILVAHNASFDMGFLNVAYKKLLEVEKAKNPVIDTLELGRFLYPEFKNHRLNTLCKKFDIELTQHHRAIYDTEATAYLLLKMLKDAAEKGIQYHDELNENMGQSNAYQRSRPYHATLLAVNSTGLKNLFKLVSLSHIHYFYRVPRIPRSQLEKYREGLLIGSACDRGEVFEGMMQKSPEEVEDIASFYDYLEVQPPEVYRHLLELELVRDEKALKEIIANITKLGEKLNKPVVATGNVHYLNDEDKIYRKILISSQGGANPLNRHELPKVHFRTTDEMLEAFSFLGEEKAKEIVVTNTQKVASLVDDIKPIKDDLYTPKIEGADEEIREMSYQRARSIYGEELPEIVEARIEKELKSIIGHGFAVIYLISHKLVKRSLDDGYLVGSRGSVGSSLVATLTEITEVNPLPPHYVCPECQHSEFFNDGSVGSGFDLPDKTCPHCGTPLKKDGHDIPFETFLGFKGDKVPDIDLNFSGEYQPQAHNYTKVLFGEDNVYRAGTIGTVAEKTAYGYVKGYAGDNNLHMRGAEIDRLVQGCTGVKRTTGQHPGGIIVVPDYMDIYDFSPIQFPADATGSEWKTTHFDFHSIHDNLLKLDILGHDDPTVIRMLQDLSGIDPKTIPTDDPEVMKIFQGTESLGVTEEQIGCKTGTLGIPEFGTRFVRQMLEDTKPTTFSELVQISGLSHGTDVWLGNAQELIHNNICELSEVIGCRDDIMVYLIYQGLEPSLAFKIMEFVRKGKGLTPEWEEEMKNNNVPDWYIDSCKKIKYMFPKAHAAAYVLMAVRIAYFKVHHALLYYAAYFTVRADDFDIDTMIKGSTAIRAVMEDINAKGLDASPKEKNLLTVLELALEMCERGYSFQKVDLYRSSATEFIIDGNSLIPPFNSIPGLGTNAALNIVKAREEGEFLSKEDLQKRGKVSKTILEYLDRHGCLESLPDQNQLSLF

As to `[Cl-].[K+]` [KCl], the “Expected characteristics: inhibition by 0.15 M KCl” value at Pol I, in the assay on Pol II and on Pol III-L was “not inhibited (Not inhibited is defined as greater than 75% remaining activity)” throughout.
“Escherichia coli beta subunit of DNA polymerase III holoenzyme (from UniProt P0A988 1-366)”: in assay [1], the Total DNA synthesis on polydA-oligodT, lane 6 (E. coli Pol III core with E. coli beta; lane 5 without beta 0.97 pmol) was 28.1 pmol and the stimulation of DNA synthesis by E. coli core on linear polydA-oligodT is more than 10 fold.

B1: Staphylococcus aureus beta subunit (dnaN gene product) (protein)
chain: MMEFTIKRDYFITQLNDTLKAISPRTTLPILTGIKIDAKEHEVILTGSDSEISIEITIPKTVDGEDIVNISETGSVVLPGRFFVDIIKKLPGKDVKLSTNEQFQTLITSGHSEFNLSGLDPDQYPLLPQVSRDDAIQLSVKVLKNVIAQTNFAVSTSETRPVLTGVNWLIQENELICTATDSHRLAVRKLQLEDVSENKNVIIPGKALAELNKIMSDNEEDIDIFFASNQVLFKVGNVNFISRLLEGHYPDTTRLFPENYEIKLSIDNGEFYHAIDRASLLAREGGNNVIKLSTGDDVVELSSTSPEIGTVKEEVDANDVEGGSLKISFNSKYMMDALKAIDNDEVEVEFFGTMKPFILKPKGDDSVTQLILPIRTY
For the molecule B1, in assay [1], the Total DNA synthesis on polydA-oligodT, lane 4 (E. coli Pol III core with S. aureus beta; lane 3 without beta 5.1 pmol) stood at 35.5 pmol and the stimulation of DNA synthesis by E. coli core on linear polydA-oligodT was found to be 5 fold. In assay [2], the Total DNA synthesis on polydA-oligodT, lane 2 (Pol III-L with S. aureus beta; lane 1 without beta 4.4 pmol) worked out at 30.3 pmol; the stimulation of DNA synthesis by Pol III-L on linear polydA-oligodT was 5 fold and 6 fold.

B2: DnaE polymerase: S. pyogenes DnaE (α-small) polymerase encoded by dnaE, SEQ. ID. No. 20 (protein)
chain: MFAQLDTKTVYSFMDSLIDLNHYFERAKQFGYHTIGIMDKDNLYGAYHFIKGCQKNGLQPVLGLEIEILYQERQVLLNLIAQNTQGYHQLLKISTAKMSGKLHMDYFCQHLEGIAVIIPSKGWSDTLVVPFDYYMGVDQYTDLSHMDSKRQLIPLRTVRYFAQDDMETLHMLHAIRDNLSLAETPVVESDQELADCQQLTAFYQTHCPQALQNLEDLVSGIYYDFDTNLKLPHFNRDKSAKQELQDLTEAGLKEKGLWKEPYQSRLLHELVIISDMGFDDYFLIVWDLLRFGRSKGYYMGMGRGSAAGSLVAYALNITGIDPVQHDLLFERFLNKERYSMPDIDIDLPDIYRSEFLRYVRNRYGSDHSAQIVTFSTFGPKQAIRDVFKRFGVPEYELTNLTKKIGFKDSLATVYEKSISFRQVINSRTEFQKAFAIAKRIEGNPRQTSIHAAGIVMSDDALTNHIPLKSGDDMMITQYDAHAVEANGLLKMDFLGLRNLTFVQKMQEKVAKDYGCQIDITAIDLEDPQTLALFAKGDTKGIFQFEQNGAINLLKRIKPQRFEEIVATTSLNRPGASDYTTNFIKRREGQEKIDLIDPVIAPILEPTYGIMLYQEQVMQIAQVYAGFTLGKADLLRRAMSKKNLQEMQKMEEDFIASAKHLGRAEETARGLFKRMEKFAGYGFNRSHAFAYSALAFQLAYFKAHYPAVFYDIMMNYSSSDYITDALESDFQVAQVTINSIPYTDKIEASKIYMGLKNIKGLPRDFAYWIIEQRPFNSVEDFLTRTPEKYQKKVFLEPLIKIGLFDCFEPNRKKILDNLDGLLVFVNELGSLFSDSSFSWVDTKDYSVTEKYSLEQEIVGVGMSKHPLIDIAEKSTQTFTPISQLVKESEAVVLIQIDSIRIIRTKTSGQQMAFLSVNDTKKKLDVTLFPQEYAIYKDQLKEGEFYYLKGRIKERDHRLQMVCQQVQMAISQKYWLLVENHQFDSQISEILGAFPGTTPVVIHYQKNKETIALTKIQVTENLKEKLRPFVLKTVFR
For the molecule B2, the “Speed of primer extension” value in assay [3] is given as “at least 60 nucleotides/s”. Moreover, the “Time to complete M13mp18 primed ssDNA template” value in assay [3] (absence of β, presence of τδδ′) was not above 2 min.
